In experiment [1] the target is T1, CD3 epsilon on human T-cells (human, UniProt P07766 23-207).
T1 construct: part of the TCR-CD3 complex on T cells; also called CD3 on T cells
The experiment in a line: T cell binding.

In experiment [2] the target is T2, recombinant CD3 (UniProt P07766 23-126).
T2 construct: also called CD3 (SPR)
In words: SPR; lower end of the range. (In SPR one partner is held on a chip, and binding of the other changes the refractive index at the surface.)

Experiment [3] deals with T2, recombinant CD3. In words: SPR; upper end of the range.
Experiment [4] concerns the target T2, recombinant CD3. The experiment in a line: SPR.
Experiment [5] deals with human MSLN on the cell surface (human, UniProt Q13421 296-598). The experiment in a line: flow cytometry (MFI PE) on OVCAR-8 cells. In general terms: In flow cytometry, cells or beads pass a laser one at a time.

Some results are limits rather than exact numbers.

T2 sequence (P07766 23-126): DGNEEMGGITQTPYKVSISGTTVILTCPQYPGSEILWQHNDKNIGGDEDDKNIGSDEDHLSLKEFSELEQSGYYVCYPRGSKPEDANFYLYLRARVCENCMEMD
T1 sequence (P07766 23-207 limits assumed): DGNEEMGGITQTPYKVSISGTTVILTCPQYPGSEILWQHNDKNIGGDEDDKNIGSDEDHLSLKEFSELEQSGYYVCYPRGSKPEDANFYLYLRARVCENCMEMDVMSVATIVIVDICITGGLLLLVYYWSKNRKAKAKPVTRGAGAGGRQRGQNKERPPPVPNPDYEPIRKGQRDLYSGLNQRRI
Sequence of human MSLN on the cell surface (Q13421 other isoform, or with tags, fused parts or gaps): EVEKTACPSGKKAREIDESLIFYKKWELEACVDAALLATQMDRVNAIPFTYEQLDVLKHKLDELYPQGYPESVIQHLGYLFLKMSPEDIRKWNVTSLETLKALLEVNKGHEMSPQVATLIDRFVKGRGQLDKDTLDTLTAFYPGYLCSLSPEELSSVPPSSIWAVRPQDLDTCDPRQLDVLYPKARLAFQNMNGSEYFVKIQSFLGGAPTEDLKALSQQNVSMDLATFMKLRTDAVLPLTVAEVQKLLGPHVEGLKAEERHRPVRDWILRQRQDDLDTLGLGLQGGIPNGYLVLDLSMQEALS

B1: CD3W245-HL-ScFv (scFv)
scFv: EVQLVESGGGLVKPGGSLRLSCAASGFTFSRYNMNWVRQAPGKGLEWVSSISTSSNYIYYADSVKGRFTFSRDNAKNSLDLQMSGLRAEDTAIYYCTRGWGPFDYWGQGTLVTVSSGGSEGKSSGSGSESKSTGGSDIQMTQSPSSLSASVGDRVTITCRARQSIGTAIHWYQQKPGKAPKLLIKYASESISGVPSRFSGSGSGTDFTLTISSLQPEDFATYYCQQSGSWPYTFGQGTKLEIK
Regarding B1, in experiment [1], the half-maximal effective concentration (EC50) fell in the range of 1 to 3 nM. For the same molecule, the figures for the Kd in experiment [2] and in experiment [3] were not below 0.5 nM and not above 1 nM, respectively.

B2: CD3W245-LH-ScFv (scFv)
scFv: DIQMTQSPSSLSASVGDRVTITCRARQSIGTAIHWYQQKPGKAPKLLIKYASESISGVPSRFSGSGSGTDFTLTISSLQPEDFATYYCQQSGSWPYTFGQGTKLEIKGGSEGKSSGSGSESKSTGGSEVQLVESGGGLVKPGGSLRLSCAASGFTFSRYNMNWVRQAPGKGLEWVSSISTSSNYIYYADSVKGRFTFSRDNAKNSLDLQMSGLRAEDTAIYYCTRGWGPFDYWGQGTLVTVSS
For the molecule B2, in experiment [1], the concentration giving a half-maximal response (EC50) lay within 20 to 50 nM. For the same molecule, the Kd in experiment [4] is 0.5 to 1 nM.

B3: MNC3B192 (bispecific antibody)
chain 1: QSALTQPASVSGSPGQSITISCTGTSSNIGTYKFVSWYQQHPGKAPKVMIYEVSKRPSGVSNRFSGSKSGNTASLTISGLQAEDEADYYCVSYAGSGTLLFGGGTKLTVLGGSEGKSSGSGSESKSTGGSQVQLQQSGPGLVKPSQTLSLTCAISGDSVFNNNAAWSWIRQSPSRGLEWLGRTYYRSKWLYDYAVSVKSRITINPDTSKNQFSLQLNSVTPEDTAVYYCARGYSSSFDYWGQGTLVTVSS
chain 2: QVQLVESGPGQVKPSQTLSLTCAISGDSVSSNSAAWNWIRQSPSRGLEWLGRTYYRSKWYNDYAVSVKSRITINPDTSKNQFSLQLNSVTPEDTAVYYCARRDYSSGGFDYWGQGTTVTVSS
chain 3: not shown
For the molecule B3, the concentration for a half-maximal effect (EC50 (read off the curve)) in experiment [5] was approximately 8 nM.

By EC50 is commonly meant the midpoint of the concentration-response curve. Low values mean an effect from little substance, high ones a need for much substance. As a reminder, the Kd is a measure of binding affinity in units of concentration. In general, EC50 (read off the curve) refers to the concentration needed to bring the measured effect to its halfway point. High values mean lower potency in that assay, low ones higher potency in that assay.

The record behind these values is patent US20240166737A1 (Janssen / Centocor, published 2024).
